Kd data for 1 molecule are collected here from US20170131285A1 (INSERM INSTITUT NATIONAL DE LA SANTE ET DE LA RECHERCHE …, published 2017).

The assay deals with T1, recombinant HSP70 (Heat Shock 70 kDa Protein) (human, UniProt P0DMV8 1-641).
T1 construct: also called HSP72; human HSP70
Put plainly: BLI (Octet Red), biotinylated A8 on streptavidin sensors, HSP70 in solution, 1:1 model global fit. Here is the method:
Protein-protein interaction experiments were conducted at 25° C. in PBS with an Octet Red instrument (Forte Bio, Menlo Park, Calif., USA) by biolayer interferometry (BLI). The ligand (cmHSP70 or A8 or TLR2) was biotinylated using EZ-Link NHS-PEG₄-biotin (Thermo Fisher Scientific, Bonn, Germany) according to the manufacturer's protocol and immobilized at a concentration of 20 μg/ml on streptavidin sensors (ForteBio, Menlo Park, Calif., USA). These functionalized biosensors were dipped into black Greiner 96-well microplates agitated at […] and filled with a solution of 200 μL containing the analyte. All sensorgrams were corrected for baseline drift by subtracting a control sensor exposed to running buffer only. Each KD was determined with a 1:1 stoichiometry model using a global fit with Rmax unlinked by sensor (Forte Bio, Data analysis software version 7.1.0.89).
Protein-protein interaction experiments were conducted with an Octet Red instrument (ForteBio, USA). The ligand (A8 or TLR2) was biotinylated using EZ-Link NHS-PEG₄-biotin (2 nM, 30 min, RT, Thermo Fisher Scientific, Germany) and immobilized on streptavidin sensors (96-well plate black, ForteBio, USA). […] Each KD was determined with a 1:1 stoichiometry model using a global fit with Rmax unlinked by sensor (ForteBio, Data analysis software version 7.1.0.89).

T1 sequence (P0DMV8 whole entry): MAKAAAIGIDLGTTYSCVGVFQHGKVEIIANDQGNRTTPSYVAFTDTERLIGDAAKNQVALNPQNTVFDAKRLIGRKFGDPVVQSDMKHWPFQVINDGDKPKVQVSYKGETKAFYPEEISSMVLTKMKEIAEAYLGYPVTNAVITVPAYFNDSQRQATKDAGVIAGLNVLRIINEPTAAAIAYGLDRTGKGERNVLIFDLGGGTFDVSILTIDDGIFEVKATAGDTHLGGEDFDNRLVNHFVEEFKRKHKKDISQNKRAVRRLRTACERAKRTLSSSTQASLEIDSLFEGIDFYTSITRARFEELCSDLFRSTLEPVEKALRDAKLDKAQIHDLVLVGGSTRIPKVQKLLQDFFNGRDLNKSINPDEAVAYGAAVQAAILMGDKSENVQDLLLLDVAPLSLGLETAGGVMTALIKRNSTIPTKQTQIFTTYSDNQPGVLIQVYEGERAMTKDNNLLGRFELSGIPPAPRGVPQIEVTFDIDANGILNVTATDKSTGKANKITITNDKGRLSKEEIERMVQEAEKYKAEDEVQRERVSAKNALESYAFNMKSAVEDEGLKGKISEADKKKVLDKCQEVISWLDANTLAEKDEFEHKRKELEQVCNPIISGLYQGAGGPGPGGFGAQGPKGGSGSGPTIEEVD

B1: peptide aptamer A8 (peptide)
peptide: SPWPRPTY
modifications: biotinylated with EZ-Link NHS-PEG4-biotin when immobilised on streptavidin sensors for BLI (site not stated); no modification stated for the solution assays
notes: also called A8 peptide aptamer; HSP70 peptide aptamer A8
On to B1, for which the Kd is 2.2 nM.
